Data as given in patent US20200179497A1 (HANSA BIOPHARMA, published 2020).

B1: pCART201 (enzyme)
chain: MSVWTKGVTPLTPEQFRYNNEDVIHAPYLAHQGWYDITKAFDGKDNLLCGAATAGNMLHWWFDQNKTEIEAYLSKHPEKQKIIFNNQELFDLKAAIDTKDSQTNSQLFNYFRDKAFPNLSARQLGVMPDLVLDMFINGYYLNVFKTQSTDVNRPYQDKDKRGGIFDAVFTRGDQTTLLTARHDLKNKGLNDISTIIKQELTEGRALALSHTYANVSISHVINLWGADFNAEGNLEAIYVTDSDANASIGMKKYFVGINAHGHVAISAKKIEGENIGAQVLGLFTLSSGKDIWQKLSGGGHHHHHH
B2: pCART203 (enzyme)
chain: MDDYQRNATEAYAKEVPHQITSVWTKGVTPPEQFTQGEDVIHAPYLAHQGWYDITKAFDGKDNLLCGAATAGNMLHWWFDQNKTEIEAYLSKHPEKQKIIFNNQELFDLKAAIDTKDSQTNSQLFNYFRDKAFPNLSARQLGVMPDLVLDMFINGYYLNVFKTQSTDVNRPYQDKDKRGGIFDAVFTRGDQTTLLTARHDLKNKGLNDISTIIKQELTEGRALALSHTYANVSISHVINLWGADFNAEGNLEAIYVTDSDANASIGMKKYFVGINAHGHVAISAKKIEGENIGAQVLGLFTLSSGKDIWQKLSGGGHHHHHH
B3: pCART197 (enzyme)
chain: MDDYQRNATEAYAKEVPHQITSVWTKGVTPLTPEQFRYNNEDVIHAPYLANQGWYDITKAFDGKDNLLCGAATAGNMLHWWFDQNKTEIEAYLSKHPEKQKIIFRNQELFDLKEAIRTKDSQTNSQLFEYFRDKAFPYLSARQLGVMPDLVLDMFINGYYLNVFKTQSTDVKRPYQDKDKRGGIFDAVFTRGNQTTLLTARHDLKNKGLNDISTIIKEELTKGRALALSHTYANVSISHVINLWGADFNAEGNLEAIYVTDSDANASIGMKKYFVGINKHGHVAISAKKIEGENIGAQVLGLFTLSSGKDIWQKLNGGGHHHHHH

What was measured:
[1] = target: rabbit anti-BSA (ACRIS, #R1048P); assay: cell-based or functional assay
[2] = target: denosumab (XGEVA); assay: cell-based or functional assay

Binder | pCART124 ratio (fold change in potency relative to IdeS), potency ELISA [1] [fold] | cleavage efficacy on SDS-PAGE, fold vs pCART144 [2] [fold] | pCART124 ratio, potency ELISA [1] [fold]
B1 | 8 |  | 
B2 |  | ~3 | ~3.5
B3 | 8 |  | 
